Consider 9 molecules from patent US20220362394A1, “ANTI-BCMA ANTIBODY CONJUGATES” (SUTRO BIOPHARMA, INC., priority 2019, published 2022).

Residue numbers refer to the chain shown, from its start.

The test system of assay [1] is ARP-1. Description: Cell killing with drug-conjugated 2° antibody (internalization), ARP-1. It counts as cell-based, human. The note with it: 72 hrs; for Span (%): Conjugate P 2° antibody 20 nM; for EC50: Conjugate P 2° antibody (hemiasterlin, cleavable linker) 20 nM. How it is done:
(§1) The internalization of the antibodies was evaluated by drugs conjugated to secondary antibodies in a cell killing assay on BCMA positive cells. BCMA-positive cell lines ARP-1 and U266B1 were used to screen for internalizing leads. Cells were washed twice with calcium and magnesium-free Dulbecco's phosphate-buffered saline (DPBS), harvested with Accutase® (Innovative Cell Technologies; San Diego, Calif.) and counted by the Vi-CELL Cell Viability Analyzers (Beckman Coulter, Brea, Calif.). A total of 12,500 cells in a volume of 25 microliter were seeded in a 384-well flat bottom white polystyrene plate (Greiner Bio-One, Monroe, N.C.) on the day of assay. Lead antibodies were formulated at 4× starting concentration in the cell culture medium and filtered through MultiScreenHTS 96-Well Filter Plates (Millipore; Billerica, Mass.). 12.5 μL of the serial diluted antibody (1:3 serial dilution starting from 100 nM) was added into treatment wells and 12.5 μL of an anti-human nanobody conjugated to according to Conjugate P (hemiasterlin via a cleavable linker) or according to Conjugate M (maytansinoid via a non-cleavable linker) was then added into each well at a fixed final concentration of 20 nM. […] Data was fitted with non-linear regression analysis, using a log(inhibitor) vs. response-variable slope, 4 parameter fit with GraphPad Prism (GraphPad v 5.0, Software; San Diego, Calif.). Data was expressed as relative cell viability (ATP content) % vs. dose of antibody.

For assay [2], the system named is U266B1. Put plainly: Cell killing with drug-conjugated 2° antibody (internalization), U266B1. The note with it: Conjugate P 2° antibody 20 nM, 72 hrs. It counts as cell-based, human. As to the method:
as §1

The target in assay [3] is T1, human BCMA-Fc (Homo sapiens, UniProt Q02223).
T1 construct: purchased R&D Systems
T1 sequence (Q02223 1-54 limits assumed): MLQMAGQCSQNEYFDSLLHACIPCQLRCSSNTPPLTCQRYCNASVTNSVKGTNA
Put plainly: Biacore kinetics, human BCMA-Fc. It counts as binding. The note with it: 25° C., 1-1 Langmuir model. As to the method:
Anti-Fab or anti-Fc polyclonal antibodies were immobilized onto a CM5 chip (GE Life Sciences) using amine coupling chemistry (from Amine Coupling Kit, GE Life Sciences). The immobilization steps were carried out at a flow rate of 25 μL/min in 1×HBS-EP+ buffer (GE Life Sciences; 10× Stock diluted before use). The sensor surfaces were activated for 7 min with a mixture of NHS (0.05 M) and EDC (0.2 M). The anti-Fab or anti-Fc antibodies were injected over all 4 flow cells at a concentration of 25 μg/ml in 10 mM sodium acetate, pH 4.5, for 7 min. Ethanolamine (1 M, pH 8.5) was injected for 7 min to block any remaining activated groups. An average of 12,000 response units (RU) of capture antibody was immobilized on each flow cell.
Off-rate and kinetic binding experiments were performed at 25° C. using 1×HBS-EP+ buffer. Test and control antibodies were injected over the anti-Fab or anti-Fc surface at concentrations of 5-10 μg/mL for 12 seconds at a flow rate of 10 μL/min on flow cells 2, 3 and 4, followed by a buffer wash for 30 seconds at the same flow rate. […]
The data was fit with the Biacore T200 Evaluation software, using a 1-1 Langmuir binding model. KD (affinity, nM) was determined as a ratio of the kinetic rate constants calculated from the fits of the association and dissociation phases.
(In general: In SPR one partner is held on a chip, and binding of the other changes the refractive index at the surface.)

B1: 10F4: chicken antibody, VH SEQ ID NO 203, VL SEQ ID NO 225 (antibody, V domains shown)
VH: AVTLDESGGGLQTPGGALSLVCKASGFTFSGYNMGWVRQAPGKGLEYVAGITYGTGSYTAYGAAVKGRATISRDNGQSTLRLQLNNLRAEDTATYYCARGGGLNSYGCSGANIDAWGHGTEVIVSS
VL: ALTQPSSVSANLGGTVKITCSGGGNYFGSYYYGWYQQKAPGSAPVTVIYNNNNRPSDIPSRFSGSTSGSTSTLTISGVRAEDEAVYFCGGFDSSTDAIFGAGTTLTVL
modifications: Synthetic 10F4, VH; Synthetic 10F4, VL
Turning to B1, in assay [1], the “Span (%)” value was 87% and the concentration for a half-maximal effect (EC50) (usually the midpoint of the concentration-response curve) was 1 nM. Besides, in assay [2], the EC50 was 0.36 nM and the “Span (%)” value is 81%.

B2: 9E12: chicken antibody, VH SEQ ID NO 209, VL SEQ ID NO 231 (antibody, V domains shown)
VH: AVTLDESGGGLQTPGGGLSLVCKASGFTFSDYGLGWMRQAPGKGLEYVARINSAGSGTYYGSAVDGRATISRDNGQSTVRLQLNNLRAEDTGTYYCTRGGGGASIDGWGHGTEVIVSS
VL: B1 VL with L12P, G14E, N25S, F27Y, A39S, V47L, S71G, S76T, F87Y, G90S
modifications: Synthetic 9E12, VH; Synthetic 9E12, VL
Consider B2, for which, in assay [1], the “Span (%)” value stood at 80% and a half-maximal response (EC50) required 1.2 nM. In addition, in assay [2], it took 1.4 nM to reach a half-maximal effect (EC50) and the “Span (%)” value worked out at 47%.

B3: 9H1: chicken antibody, VH SEQ ID NO 210, VL SEQ ID NO 232 (antibody, V domains shown)
VH: AVTLDESGGGLQTPGGALSLVCKGSGFTFSDYGMGWMRQAPGKGLQYVARINSAGSDTNYGSAVKGRATISRDDGQSTVRLQLSSLRAEDTGIYYCTRGGGGASIDGWGHGTEVIVSS
VL: B1 VL with L12P, G14E, N25S, F27Y, A39S, V47L, S71G, S76T, F87Y, G90S
modifications: Synthetic 9H1, VH; Synthetic 9H1, VL
B3: the “Span (%)” value in assay [1] is reported as 74%; in assay [2], 50%. Further, the results for the EC50 in assay [1] and in assay [2] were 1.3 nM and 1.1 nM, respectively.

B4: 10H1: chicken antibody, VH SEQ ID NO 211, VL SEQ ID NO 233 (antibody, V domains shown)
VH: B2 VH with G17A, D31G, L34M, G57D, Y59D, S62A, D65K, G92A, Y95F
VL: B1 VL with L12P, G14E, F27Y, D57N, T66K, S71G, S76T, R79Q, T95S
modifications: Synthetic 10H1, VH; Synthetic 10H1, VL
Turning to B4, in assay [1], the “Span (%)” value is recorded as 88% and the EC50 came out at 0.86 nM. In assay [2], the midpoint of the response, the EC50, lay at 0.29 nM and the “Span (%)” value stood at 89%.

B5: 9A5: chicken antibody, VH SEQ ID NO 208, VL SEQ ID NO 230 (antibody, V domains shown)
VH: AVTLDESGGGLQTPGGAVSLVCKASGFSISDYGMGWMRQAPGKGLQYVARIDHDGRYTDYGAVVKGRATISRDNGQSTVRLQLNNLRAEDTGTYYCTRGGGAASIDTWGHGTEVIVSS
VL: B1 VL with L12P, G14E, F27V, S29G, P44L, V47L, D57N, S76T, G90S
modifications: Synthetic 9A5, VH; Synthetic 9A5, VL
On to B5, for which the “Span (%)” value stood at 93% in assay [1] and 84% in assay [2]. Moreover, the figures for the concentration giving a half-maximal response (EC50) in assay [1] and in assay [2] were 0.7 nM and 0.29 nM, respectively.

B6: 10E10: chicken antibody, VH SEQ ID NO 212, VL SEQ ID NO 234 (antibody, V domains shown)
VH: AVTLDESGGGLQTPGGGLSLVCKASGFTFSSYGMGWMRQAPGKGLEFVARINSGGSSYTDYGSAVKGRATISRDDGQSTVRLQLNNLRAEDTGIYYCTRGGGGASIDGWGHGTEVIVSS
VL: B1 VL with L12P, G14E, F27A, A39S, V45L, N51S, T66L, S71G, S76T
modifications: Synthetic 10E10, VH; Synthetic 10E10, VL
For the molecule B6, the “Span (%)” value in assay [1] came to 46%; in assay [2] it was 20%. Further, the concentration for a half-maximal effect (EC50) in assay [1] amounted to 3 nM; in assay [2], 2.5 nM.

B7: 11D6: chicken antibody, VH SEQ ID NO 198, VL SEQ ID NO 220 (antibody, V domains shown)
VH: AVTLDESGGGLQTPGGTLSLVCKASGFTFSSFNMFWVRQAPGEGLEWVAYIRNDGRSTSYGPAVKGRATISRDNGQSTVRLQLNNLRAEDTGTYFCAKTTCVGSGGCIDTWGHGTEVIVSS
VL: ALTQPSSVSANPGETVEITCSGGNSDYGWFQQKSPGSAPVTVIYRNNQRPSDIPSRFSGSGSGSTNTLTITGVQAEDEAIYYCGNVDFTDDVFGAGTTLTVL
modifications: Synthetic 11D6, VH; Synthetic 11D6, VL
Turning to B7, in assay [1], the “Span (%)” value is 83% and the concentration giving a half-maximal response (EC50) was found to be 3.8 nM. For the same molecule, in assay [2], the half-maximal effective concentration (EC50) is 1.1 nM and the “Span (%)” value stood at 67%. Besides, in assay [3], the “ka” value was 1.02e+06 M⁻¹ s⁻¹ and the “kd” value worked out at 0.000318 s⁻¹.

B8: 9A8: chicken antibody, VH SEQ ID NO 196, VL SEQ ID NO 218 (antibody, V domains shown)
VH: B7 VH with E43K, R56N, T58A, G92A, F95Y, V102I
VL: B7 VL with E17K, N24S, R45S, D52G, G61K, N66G, G84A, F88Y
modifications: Synthetic 9A8, VH; Synthetic 9A8, VL
Turning to B8, in assay [1], the “Span (%)” value is listed as 82% and it took 2.4 nM to reach a half-maximal effect (EC50). For the same molecule, in assay [2], the concentration giving a half-maximal response (EC50) amounted to 2.3 nM and the “Span (%)” value is 42%.

B9: 10G5: chicken antibody, VH SEQ ID NO 197, VL SEQ ID NO 219 (antibody, V domains shown)
VH: B7 VH with T17V, E43K, R52S, R56S, G92A, V102I
VL: B7 VL with E17K, S25Y, F30Y, V42L, R45Y, Q48K, G61K, N66G, G84A, F88S
modifications: Synthetic 10G5, VH; Synthetic 10G5, VL
As to B9, in assay [1], the “Span (%)” value came out at 82% and the half-maximal effective concentration (EC50) came to 3.5 nM. Moreover, in assay [2], it took 1.9 nM to reach a half-maximal effect (EC50) and the “Span (%)” value is listed as 63%.
